Biological target: 人CD22(hCD22)蛋白 (human) (UniProt P20273)
Assay: phage ELISA, 0.5 ug/ml hCD22 coated, phage supernatant, anti-M13-HRP

UniProt P20273, sequence (P20273 20-687 limits assumed): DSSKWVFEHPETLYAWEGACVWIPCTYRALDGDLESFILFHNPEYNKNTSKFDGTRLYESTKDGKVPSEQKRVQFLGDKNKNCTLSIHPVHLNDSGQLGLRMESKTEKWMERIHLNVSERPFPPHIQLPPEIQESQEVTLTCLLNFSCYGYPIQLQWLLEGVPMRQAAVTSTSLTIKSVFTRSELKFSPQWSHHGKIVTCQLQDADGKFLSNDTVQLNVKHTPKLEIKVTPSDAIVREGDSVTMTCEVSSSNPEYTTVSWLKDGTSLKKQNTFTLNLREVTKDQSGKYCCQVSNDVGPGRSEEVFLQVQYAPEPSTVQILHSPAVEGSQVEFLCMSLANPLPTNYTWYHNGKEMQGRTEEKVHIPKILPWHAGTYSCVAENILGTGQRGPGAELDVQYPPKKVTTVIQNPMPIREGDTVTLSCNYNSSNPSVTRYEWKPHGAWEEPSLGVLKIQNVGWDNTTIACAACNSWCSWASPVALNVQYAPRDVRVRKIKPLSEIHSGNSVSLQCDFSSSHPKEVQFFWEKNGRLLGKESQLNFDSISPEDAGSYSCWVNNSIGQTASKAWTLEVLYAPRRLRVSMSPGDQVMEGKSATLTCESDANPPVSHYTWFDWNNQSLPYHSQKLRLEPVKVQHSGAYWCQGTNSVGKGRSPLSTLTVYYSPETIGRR

OD450: > 1.5 OD450
B1: CD22抗体 (scFv单链抗体, 抗CD22) (scFv)
scFv: DIVMTQSPSSLSASVGDRVTITCRASQSINNYLNWYQQKPGKAPKLLISAASSLQSGVPSRFSGSGSGTDFTLTISSLQPEDFATYYCQQSYTTPLTFGGGTKVEIRGSTSGSGKPGSGEGSTKGQVQLQQSGPGLVESSQILSLTCAISGDSVSSNSATWNWIRLSPSRGLEWLGRTYYRSTWYNDYPASVKGRIIIDPDTSKNQFSLLLSSVTPEDTAVYYCARELVPRGATIGFDYWGQGTLVTVSS

Reference: patent CN111484562A
